B1: Azoarcus group I ribozyme (parent)
chain: GUGCCUUGCGCCGGGAAACCACGCAAGGGAUGGUGUCAAAUUCGGCGAAACCUAAGCGCCCGCCCGGGCGUAUGGCAACGCCGAGCCAAGCUUCGGCGCCUGCGCCGAUGAAGGUGUAGAGACUAGACGGCACCCACCUAAGGCAAACGCUAUGGUGAAGGCAUAGUCCAGGGAGUGGCGAAAGUCACACAAACCGG

Variants of: B1
Assay: reverse-splicing fitness (ratio to wild type); higher = more active; in vitro selection; Mg2+ level not given
In short: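 An in vitro group I ribozyme library with randomized positions was T7-transcribed and gel-purified. In triplicate, 10 pmol RNA in EPPS pH 7.5 was reacted with 50 pmoles of a 30-nt RNA substrate for 1 h at 37 °C across several added MgCl2 levels (1–48 mM), then stopped with EDTA. Products were reverse transcribed from a substrate-complementary primer, PCR-amplified and sequenced (HiSeq 4000). Fitness is a variant's read proportion after selection over that before, normalised to wild type.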

Row | Variant | reverse-splicing fitness
1 | GUGCCUUGCGCCGGGAAACCACGCAAGGGAUGGUGUCAAAUUCGGCGAAACCUAAGCGCCCGCCCGGGCGUAUGGCAACGCCGAGCCAAGCUUCGGCGCCUGCGCCGAUGGAGGUGUAGUGACUAGACGGCACCCACCUAAGGCUAACGGUAUGGUGAAGGCAUAGUCCAGGGAGAGGCGAAAGUCACACAAACCGG [A111G A120U A145U C150G U176A] | 0.0157
2 | GUGCCUUGCGCCGGGAAACCACGCAAGGGAUGGUGUCAAAUUCGGCGAAACCUAAGCGCCCGCCCGGGCGUAUGGCAACGCCGAGCCAAGCUUCGGCGCCUGCGCCGAUGGAGGUGUAGUGACUAGACGGCACCCACCUAAGGCUAACGGUAUGGUGAAGGCAUAGUCCAGGGAGGGGCGAAAGUCACACAAACCGG [A111G A120U A145U C150G U176G] | 0.00462
3 | GUGCCUUGCGCCGGGAAACCACGCAAGGGAUGGUGUCAAAUUCGGCGAAACCUAAGCGCCCGCCCGGGCGUAUGGCAACGCCGAGCCAAGCUUCGGCGCCUGCGCCGAUGGAGGUGUAGUGACUAGACGGCACCCACCUAAGGCUAACGGUAUGGUGAAGGCAUAGUCCAGGGAGCGGCGAAAGUCACACAAACCGG [A111G A120U A145U C150G U176C] | 0.0298
4 | GUGCCUUGCGCCGGGAAACCACGCAAGGGAUGGUGUCAAAUUCGGCGAAACCUAAGCGCCCGCCCGGGCGUAUGGCAACGCCGAGCCAAGCUUCGGCGCCUGCGCCGAUGGAGGUGUAGUGACUAGACGGCACCCACCUAAGGCUAACGGUAUGGUGAAGGCAUAGUCGAGGGAGGGGCGAAAGUCACACAAACCGG [A111G A120U A145U C150G C169G U176G] | 0.00203
5 | GUGCCUUGCGCCGGGAAACCACGCAAGGGAUGGUGUCAAAUUCGGCGAAACCUAAGCGCCCGCCCGGGCGUAUGGCAACGCCGAGCCAAGCUUCGGCGCCUGCGCCGAUGGAGGUGUAGUGACUAGACGGCACCCACCUAAGGCUAACGGUAUGGUGAAGGCAUAGUCGAGGGAGCGGCGAAAGUCACACAAACCGG [A111G A120U A145U C150G C169G U176C] | 0.00268
6 | GUGCCUUGCGCCGGGAAACCACGCAAGGGAUGGUGUCAAAUUCGGCGAAACCUAAGCGCCCGCCCGGGCGUAUGGCAACGCCGAGCCAAGCUUCGGCGCCUGCGCCGAUGGAGGUGUAGUGACUAGACGGCACCCACCUAAGGCUAACGGUAUGGUGAAGGCAUAGUCGAGGGAGAGGCGAAAGUCACACAAACCGG [A111G A120U A145U C150G C169G U176A] | 0.00284
7 | GUGCCUUGCGCCGGGAAACCACGCAAGGGAUGGUGUCAAAUUCGGCGAAACCUAAGCGCCCGCCCGGGCGUAUGGCAACGCCGAGCCAAGCUUCGGCGCCUGCGCCGAUGGAGGUGUAGUGACUAGACGGCACCCACCUAAGGCUAACGUUAUGGUGAAGGCAUAGUCAAGGGAGAGGCGAAAGUCACACAAACCGG [A111G A120U A145U C150U C169A U176A] | 0.00375
8 | GUGCCUUGCGCCGGGAAACCACGCAAGGGAUGGUGUCAAAUUCGGCGAAACCUAAGCGCCCGCCCGGGCGUAUGGCAACGCCGAGCCAAGCUUCGGCGCCUGCGCCGAUGGAGGUGUAGUGACUAGACGGCACCCACCUAAGGCUAACGUUAUGGUGAAGGCAUAGUCAAGGGAGGGGCGAAAGUCACACAAACCGG [A111G A120U A145U C150U C169A U176G] | 0.00175
9 | GUGCCUUGCGCCGGGAAACCACGCAAGGGAUGGUGUCAAAUUCGGCGAAACCUAAGCGCCCGCCCGGGCGUAUGGCAACGCCGAGCCAAGCUUCGGCGCCUGCGCCGAUGGAGGUGUAGUGACUAGACGGCACCCACCUAAGGCUAACGUUAUGGUGAAGGCAUAGUCAAGGGAGCGGCGAAAGUCACACAAACCGG [A111G A120U A145U C150U C169A U176C] | 0.0026
10 | GUGCCUUGCGCCGGGAAACCACGCAAGGGAUGGUGUCAAAUUCGGCGAAACCUAAGCGCCCGCCCGGGCGUAUGGCAACGCCGAGCCAAGCUUCGGCGCCUGCGCCGAUGGAGGUGUAGUGACUAGACGGCACCCACCUAAGGCUAACGGUAUGGUGAAGGCAUAGUCUAGGGAGUGGCGAAAGUCACACAAACCGG [A111G A120U A145U C150G C169U] | 0.012
11 | GUGCCUUGCGCCGGGAAACCACGCAAGGGAUGGUGUCAAAUUCGGCGAAACCUAAGCGCCCGCCCGGGCGUAUGGCAACGCCGAGCCAAGCUUCGGCGCCUGCGCCGAUGGAGGUGUAGUGACUAGACGGCACCCACCUAAGGCUAACGGUAUGGUGAAGGCAUAGUCGAGGGAGUGGCGAAAGUCACACAAACCGG [A111G A120U A145U C150G C169G] | 0.0082
12 | GUGCCUUGCGCCGGGAAACCACGCAAGGGAUGGUGUCAAAUUCGGCGAAACCUAAGCGCCCGCCCGGGCGUAUGGCAACGCCGAGCCAAGCUUCGGCGCCUGCGCCGAUGGAGGUGUAGUGACUAGACGGCACCCACCUAAGGCUAACGGUAUGGUGAAGGCAUAGUCAAGGGAGUGGCGAAAGUCACACAAACCGG [A111G A120U A145U C150G C169A] | 0.00344
13 | GUGCCUUGCGCCGGGAAACCACGCAAGGGAUGGUGUCAAAUUCGGCGAAACCUAAGCGCCCGCCCGGGCGUAUGGCAACGCCGAGCCAAGCUUCGGCGCCUGCGCCGAUGGAGGUGUAGUGACUAGACGGCACCCACCUAAGGCUAACGGUAUGGUGAAGGCAUAGUCAAGGGAGGGGCGAAAGUCACACAAACCGG [A111G A120U A145U C150G C169A U176G] | 0.0022
14 | GUGCCUUGCGCCGGGAAACCACGCAAGGGAUGGUGUCAAAUUCGGCGAAACCUAAGCGCCCGCCCGGGCGUAUGGCAACGCCGAGCCAAGCUUCGGCGCCUGCGCCGAUGGAGGUGUAGUGACUAGACGGCACCCACCUAAGGCUAACGGUAUGGUGAAGGCAUAGUCAAGGGAGAGGCGAAAGUCACACAAACCGG [A111G A120U A145U C150G C169A U176A] | 0.00281
15 | GUGCCUUGCGCCGGGAAACCACGCAAGGGAUGGUGUCAAAUUCGGCGAAACCUAAGCGCCCGCCCGGGCGUAUGGCAACGCCGAGCCAAGCUUCGGCGCCUGCGCCGAUGGAGGUGUAGUGACUAGACGGCACCCACCUAAGGCUAACGGUAUGGUGAAGGCAUAGUCAAGGGAGCGGCGAAAGUCACACAAACCGG [A111G A120U A145U C150G C169A U176C] | 0.00355

— the RNAGym collection of RNA variant scans (doi:10.1093/molbev/msab373)
